Assay results from publication PMC8586658 (Cancer Science, 2021).

Biological target: T1, mouse IL‐2Rα on 293T cells (293Tα) (mouse, UniProt P01590 22-268)
T1 sequence: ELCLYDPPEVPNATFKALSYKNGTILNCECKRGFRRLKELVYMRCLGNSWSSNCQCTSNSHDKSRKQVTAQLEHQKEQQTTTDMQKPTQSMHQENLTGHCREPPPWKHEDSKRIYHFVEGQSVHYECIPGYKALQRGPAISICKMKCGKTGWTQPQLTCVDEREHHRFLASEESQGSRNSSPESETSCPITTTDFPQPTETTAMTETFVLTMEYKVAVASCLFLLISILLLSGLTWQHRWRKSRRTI
Test: binding of NanoLuc fusion proteins to cells

B1: Mutakine‐6 (MK‐6), IL‐2 K35A/R38A/K43A/Y45A on the MK‐0 template, fused to NanoLuc (ligand)
chain: APASSSTKKTQLQLEHLLLDLQMILNGINNYKNPALTAMLTFAFAMPKKATELKHLQCLEEELKPLEEVLNLAQSKNFHLRPRDLISNINVIVLELKGSETTFMCEYADETATIVEFLNRWITFAQSIISTLT
  mouse 293Tα/293T ratio: 1.8 ratio
